This note sets out measurements from paper PMC11200690 (Antibodies, 2024).

The assay deals with T1, recombinant human HER2 ECD protein (Homo sapiens, UniProt P04626).
T1 construct: human epidermal growth factor receptor-2 (HER2, Erbb2), extracellular domain; also called HER2 antigen; Erbb2; source: bought: SinoBiological (10004-H08H)
As to the kind of experiment: BLI; scFv formats against HER2 ECD; set-up not told (Figure S2). The following applies: both partners purified. On the technique in general: Biolayer interferometry detects binding as a change in optical thickness at a sensor tip.

B1: Ab8 scFv (scFv, V domains shown)
VH: QVQLGESGGGVVRPGGSLRLSCAASGFTFSSYAMSWVRQAPGKGLEWVSAISGSGGSTYYADSVKGRFTISRENAKNSLYLQMNSLRAEDTAVYYCARRGGVWAFDIWGQGTMVTVSS
VL: DVVMTQSPLSLPVTPGEPASISCRSSQSLLHSNGINYLDWYLQKPGQSPQLLIYLGSSRASGVPDRFSGSGSGTDFTLKISRVEAEDVGVYFCMQALQTPLTFGQGTKLEIK
notes: as the VH of m1; as the VL of m1; also called scFv Ab8; ScFv of Ab8; source: HB2151 cells (pComb3x plasmid), purified (Ni-NTA); not shown: Flag, C-terminal, kept
As to B1, the Kd is 9 nM.

As usually defined, the Kd is the concentration at which binding is half-saturated.
